Test results published in article PMC4803751, “Identification and Partial Characterization of a Novel UDP-N-Acetylenolpyruvoylglucosamine Reductase/UDP-N-Acetylmuramate:L-Alanine Ligase Fusion Enzyme from Verrucomicrobium spinosum DSM 4136^T” (Frontiers in Microbiology, 2016).

Legend:
Test in all cases: radiometric HPLC assay of UDP-MurNAc-L-Ala formation
Format in all cases: biochemical, Verrucomicrobium spinosum
[1] = substrate: CC(=O)N[C@H]1[C@@H](OP(=O)(O)OP(=O)(O)OC[C@H]2O[C@@H](n3ccc(=O)[nH]c3=O)[C@H](O)[C@@H]2O)O[C@H](CO)[C@@H](O)[C@@H]1O[C@H](C)C(=O)O; details: 5 mM ATP, 0.2 mM L-Ala, 10 mM MgCl2, 100 mM Tris-HCl pH 9.0, 10 mM ammonium sulfate, 0.5 mg/mL BSA, 37°C, UDP-MurNAc 25-500 μM, labelled compound, MurC activity
From the text: (§1) radiometric HPLC assay of UDP-MurNAc-L-Ala formation on MurB/CVs (MurCVs activity)

[2] = substrate: Nc1ncnc2c1ncn2[C@@H]1O[C@H](COP(=O)(O)OP(=O)(O)OP(=O)(O)O)[C@@H](O)[C@H]1O; details: 1 mM UDP-MurNAc, 0.2 mM L-Ala, 10 mM MgCl2, 100 mM Tris-HCl pH 9.0, 10 mM ammonium sulfate, 0.5 mg/mL BSA, 37°C, ATP 0.2-5 mM, MurC activity
From the text: as §1

[3] = substrate: C[C@H](N)C(=O)O; details: 5 mM ATP, 1 mM UDP-MurNAc, 10 mM MgCl2, 100 mM Tris-HCl pH 9.0, 10 mM ammonium sulfate, 0.5 mg/mL BSA, 37°C, L-Ala 10-400 μM, labelled compound, MurC activity
From the text: as §1

B1: MurB/CVs (MurCVs activity) (Verrucomicrobium spinosum) (protein)
chain: MNHAVVSLLKEGRHKMHVHLIGVAGSGMSGLALLLMELGHKVSGSDKVTTLETERMEKKGLIFHCPQSEREVEGADMVIYSSAVKPGNPAYEAAYRHGIPLVRRAEALAAIMARKHGVVVAGTHGKTTTSSMAAHVLRVGGAKPSHYVGAEIPILGSNAHWDDAGELFVAEGDESDGTLVKFEPRHAIILNIEAEHLDYYEDLNEIKLVFRQLLEKTSGYSVYCAEDPVATELCEGRKNGISYGWSRDHNFSANILELRPAQTRYEVFQKGELLGEVLLGIPGRHNVLNSLAAISLAVSVGVPFSSIKQALESFRGARRRFEVKYSGSQYQIIDDYGHHPTEIKATLATAKALNPKRIVCLFQPHRYSRTQLLKQEFGGAFNDVDVLCVTDVYAASEKPLPGVSGETILEEVKLQAPGVECHSTPKLLNARDLIGSKLRPGDLLITLGAGNVHEVGSALARDLKVAEQLTTVLNREGGGTVKLYEPMANHTTIRLGGPAQYWIEPMTIQGFAEVVKALRAALIPIRVIGRGSNLLVRDGGIKGAVLHPSKGEFDEVRVDGNFIFAATGVRLKKIASAARAAGLGGFEWMEGIPGNLGGALRMNAGAMGLQTFDQVVSVRFLDGNGELREKMKHEIDHQYRSVPELDRHFAVSAVLQGRPAEAAEIDEKLAASHQKRRGSQPIGASAGCIFKNPGPVPAGKLVDELGLKGRSFGKAIVSDVHGNFILNSGGGTARDVQDLISDIKQVALQERGIMLETEVQIIGEEEPLPL
- Km [1]: 90 ± 25 µM
- Km [2]: 470 ± 160 µM
- Km [3]: 25 ± 10 µM
- kcat [3]: 8 s⁻¹
